Molecular target: GltPh, archaeal homolog of excitatory amino acid transporters from Pyrococcus horikoshii (Pyrococcus horikoshii) (UniProt O59010)
Assay: high-speed atomic force microscopy (HS-AFM) imaging; purified GltPh reconstituted in DOPC/DOPE/DOPS 8:1:1 membranes, spread on mica, imaged in buffer solution in amplitude modulation mode; unlabeled protein

Substance: GltPh, archaeal homolog of excitatory amino acid transporters from Pyrococcus horikoshii (from UniProt O59010 1-425) (natural protein)
- stoichiometry N: 3
